Source: patent US20230056252A1 (Gilead, published 2023)

What was measured:
[1] = biological target: T1, CD3 expressed on cell-surface of primary human T cells (human, UniProt P07766 23-207; P04234 22-171); experiment: flow cytometry competition vs murine SP34-AF488 on human T cells, n = 2
T1 construct: also called cell-surface CD3; human CD3
Description: (§1) Binding of humanized SP34 Fab variants to CD3 expressed on cell-surface of primary human T cells was evaluated in a flow cytometry-based competition assay.

[2] = biological target: T1, CD3 expressed on cell-surface of …; experiment: flow cytometry competition vs murine SP34-AF488 on human T cells, n = 1
Description: as §1

[3] = biological target: T1, CD3 expressed on cell-surface of …; experiment: flow cytometry competition vs murine SP34-AF488 on human T cells, average
Description: as §1

[4] = biological target: T1, CD3 expressed on cell-surface of …; experiment: flow cytometry competition vs murine SP34-AF488 on human T cells, n = 2; remark: listed apart in the source
Description: as §1
(§2) A second round of huSP34 Fab variants were characterized using the same flow cytometry-based competition assay as described above.

[5] = biological target: T1, CD3 expressed on cell-surface of …; experiment: flow cytometry competition vs murine SP34-AF488 on human T cells, average; remark: listed apart in the source
Description: as §1, §2

[6] = biological target: T1, CD3 expressed on cell-surface of …; experiment: flow cytometry competition vs murine SP34-AF488 on human T cells, n = 1; remark: listed apart in the source
Description: as §1, §2

T1 sequence (P07766 23-207 limits assumed, chain 1 of 2): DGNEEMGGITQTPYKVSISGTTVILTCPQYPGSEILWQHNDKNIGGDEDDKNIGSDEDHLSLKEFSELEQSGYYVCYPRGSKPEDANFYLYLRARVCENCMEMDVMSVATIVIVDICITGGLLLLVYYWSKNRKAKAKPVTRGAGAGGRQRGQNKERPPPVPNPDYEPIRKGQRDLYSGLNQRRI
T1 sequence (P04234 22-171 limits assumed, chain 2 of 2): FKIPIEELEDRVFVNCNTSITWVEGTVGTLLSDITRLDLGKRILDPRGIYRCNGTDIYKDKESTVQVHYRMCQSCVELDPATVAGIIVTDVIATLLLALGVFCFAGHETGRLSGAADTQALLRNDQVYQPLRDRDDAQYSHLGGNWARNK

Binder | IC50 [1] | IC50 [2] | IC50 [3] | IC50 [4] | IC50 [5] | IC50 [6]
huSP34.2.1 Fab-HF (Fab, V domains shown) VH: EVQLVESGGGLVQPGGSLRLSCAASGFTFSTYAMNWVRQAPGKGLEWVGRIRSKYNNYATYYAASVKGRFTISRDDSKNSLYLQMNSLKTEDTAMYYCVRHGNFGNSYVSWFAVWGQGTLVTVSS VL: QAVVTQEPSLTVSPGGTVTLTCRSSTGAVTTSNYANWVQQKPGQAPRGLIGGTNKRAPWTPARFSGSLIGDKAALTLSGAQPEDEAEYYCALWYSNLWVFGGGTKLTVL | 3.68 µg/mL | 6.17 µg/mL | 4.92 µg/mL |  |  | 
huSP34.13.7 Fab-HF (Fab, V domains shown) VH: EVQLVESGGGLVQPGGSLRLSCAASGFTFSTYAMNWVRQAPGKGLEWVGRIRSKYNNYATYYAASVKGRFTISRDDSKNTLYLQMNSLRTEDTAVYYCVRHGNFGHSYVSWFAYWGQGTLVTVSS VL: QAVVTQEPSLTVSPGGTVTLTCRSSTGAVTTGHYANWVQQKPGQAPRGLIGGTNKRAPGVPARFSGSLLGGKAALTISGAQPEDEAEYYCALWYSNLWVFGGGTKLTVL |  |  |  | 0.18 µg/mL | 0.31 µg/mL | 0.43 µg/mL
huSP34.12.8 Fab-HF (Fab, V domains shown) VH: EVQLVESGGGLVQPGGSLRLSCAASGFTFSTYAMNWVRQAPGKGLEWVARIRSKYNNYATYYAASVKGRFTISRDDSKNSLYLQMNSLRTEDTAVYYCVRHGNFGHSYVSWFAYWGQGTLVTVSS VL: QAVVTQEPSLTVSPGGTVTLTCGSSTGAVTTGHYANWVQQKPGQAPRGLIGGTNKRAPGVPARFSGSLLGGKAALTISGAQPEDEAEYYCALWYSNRWVFGGGTKLTVL |  |  |  | 0.29 µg/mL | 0.43 µg/mL | 0.57 µg/mL
huSP34.11.7 Fab-HF (Fab, V domains shown) VH: EVQLVESGGGLVQPGGSLRLSCAASGFTFSTYAMNWVRQAPGKGLEWVGRIRSKYNNYATYYAASVKGRFTISRDDSKNSLYLQMNSLRTEDTAVYYCVRHGNFGHSYVSWFAYWGQGTLVTVSS VL: QAVVTQEPSLTVSPGGTVTLTCRSSTGAVTTGHYANWVQQKPGQAPRGLIGGTNKRAPGVPARFSGSLLGGKAALTISGAQPEDEAEYYCALWYSNLWVFGGGTKLTVL |  |  |  | 0.18 µg/mL | 0.32 µg/mL | 0.45 µg/mL
huSP34.3.1 Fab-HF (Fab, V domains shown) VH: EVQLVESGGGLVQPGGSLRLSCAASGFTFNTYAMNWVRQAPGKGLEWVGRIRSKYNNYATYYADSVKGRFTISRDDSKNSLYLQMNSLRTEDTAVYYCVRHGNFGHSYVSWFAYWGQGTLVTVSS VL: QAVVTQEPSLTVSPGGTVTLTCRSSTGAVTTSNYANWVQQKPGQAPRGLIGGTNKRAPWTPARFSGSLIGDKAALTLSGAQPEDEAEYYCALWYSNLWVFGGGTKLTVL | 2.22 µg/mL | 3.56 µg/mL | 2.89 µg/mL |  |  | 
huSP34.12.7 Fab-HF (Fab, V domains shown) VH: EVQLVESGGGLVQPGGSLRLSCAASGFTFSTYAMNWVRQAPGKGLEWVARIRSKYNNYATYYAASVKGRFTISRDDSKNSLYLQMNSLRTEDTAVYYCVRHGNFGHSYVSWFAYWGQGTLVTVSS VL: QAVVTQEPSLTVSPGGTVTLTCRSSTGAVTTGHYANWVQQKPGQAPRGLIGGTNKRAPGVPARFSGSLLGGKAALTISGAQPEDEAEYYCALWYSNLWVFGGGTKLTVL |  |  |  | 0.39 µg/mL | 0.58 µg/mL | 0.77 µg/mL
huSP34.3.7 Fab-HF (Fab, V domains shown) VH: EVQLVESGGGLVQPGGSLRLSCAASGFTFNTYAMNWVRQAPGKGLEWVGRIRSKYNNYATYYADSVKGRFTISRDDSKNSLYLQMNSLRTEDTAVYYCVRHGNFGHSYVSWFAYWGQGTLVTVSS VL: QAVVTQEPSLTVSPGGTVTLTCRSSTGAVTTGHYANWVQQKPGQAPRGLIGGTNKRAPGVPARFSGSLLGGKAALTISGAQPEDEAEYYCALWYSNLWVFGGGTKLTVL |  |  |  | 0.15 µg/mL | 0.23 µg/mL | 0.3 µg/mL
huSP34.2.6 Fab-HF (Fab, V domains shown) VH: EVQLVESGGGLVQPGGSLRLSCAASGFTFSTYAMNWVRQAPGKGLEWVGRIRSKYNNYATYYAASVKGRFTISRDDSKNSLYLQMNSLKTEDTAMYYCVRHGNFGNSYVSWFAVWGQGTLVTVSS VL: QAVVTQPPSLTVSPGGTVTLTCGSSTGAVTTGHYANWVQQKPGQAPRGLIGGTSNRAPGVPARFSGSLSGGKAALTISGAQPEDEAEYYCALWYSARWVFGGGTKLTVL | 3.4 µg/mL | 4.68 µg/mL | 4.04 µg/mL |  |  | 
huSP34.2.2 Fab-HF (Fab, V domains shown) VH: EVQLVESGGGLVQPGGSLRLSCAASGFTFSTYAMNWVRQAPGKGLEWVGRIRSKYNNYATYYAASVKGRFTISRDDSKNSLYLQMNSLKTEDTAMYYCVRHGNFGNSYVSWFAVWGQGTLVTVSS VL: QAVVTQEPSLTVSPGGTVTLTCGSSTGAVTTSNYANWVQQKPGQAPRGLIGGTSNRAPWTPARFSGSLLGGKAALTLSGAQPEDEAEYYCALWYSNLWVFGGGTKLTVL | 16.6 µg/mL | > 20 µg/mL | 16.6 µg/mL |  |  | 
huSP34.11.9 Fab-HF (Fab, V domains shown) VH: EVQLVESGGGLVQPGGSLRLSCAASGFTFSTYAMNWVRQAPGKGLEWVGRIRSKYNNYATYYAASVKGRFTISRDDSKNSLYLQMNSLRTEDTAVYYCVRHGNFGHSYVSWFAYWGQGTLVTVSS VL: QAVVTQPPSLTVSPGGTVTLTCGSSTGAVTTGHYANWVQQKPGQAPRGLIGGTNKRAPGVPARFSGSLSGGKAALTISGAQPEDEAEYYCALWYSNLWVFGGGTKLTVL |  |  |  | 0.22 µg/mL | 0.4 µg/mL | 0.57 µg/mL
huSP34.11.8 Fab-HF (Fab, V domains shown) VH: EVQLVESGGGLVQPGGSLRLSCAASGFTFSTYAMNWVRQAPGKGLEWVGRIRSKYNNYATYYAASVKGRFTISRDDSKNSLYLQMNSLRTEDTAVYYCVRHGNFGHSYVSWFAYWGQGTLVTVSS VL: QAVVTQEPSLTVSPGGTVTLTCGSSTGAVTTGHYANWVQQKPGQAPRGLIGGTNKRAPGVPARFSGSLLGGKAALTISGAQPEDEAEYYCALWYSNRWVFGGGTKLTVL |  |  |  | 0.13 µg/mL | 0.22 µg/mL | 0.3 µg/mL
huSP34.12.10 Fab-HF (Fab, V domains shown) VH: EVQLVESGGGLVQPGGSLRLSCAASGFTFSTYAMNWVRQAPGKGLEWVARIRSKYNNYATYYAASVKGRFTISRDDSKNSLYLQMNSLRTEDTAVYYCVRHGNFGHSYVSWFAYWGQGTLVTVSS VL: QAVVTQPPSLTVSPGGTVTLTCGSSTGAVTTGHYANWVQQKPGQAPRGLIGGTNKRAPGVPARFSGSLSGGKAALTISGAQPEDEAEYYCALWYSNRWVFGGGTKLTVL |  |  |  | 0.33 µg/mL | 0.51 µg/mL | 0.69 µg/mL
huSP34.3.10 Fab-HF (Fab, V domains shown) VH: EVQLVESGGGLVQPGGSLRLSCAASGFTFNTYAMNWVRQAPGKGLEWVGRIRSKYNNYATYYADSVKGRFTISRDDSKNSLYLQMNSLRTEDTAVYYCVRHGNFGHSYVSWFAYWGQGTLVTVSS VL: QAVVTQPPSLTVSPGGTVTLTCGSSTGAVTTGHYANWVQQKPGQAPRGLIGGTNKRAPGVPARFSGSLSGGKAALTISGAQPEDEAEYYCALWYSNRWVFGGGTKLTVL |  |  |  | 0.09 µg/mL | 0.15 µg/mL | 0.2 µg/mL
huSP34.12.9 Fab-HF (Fab, V domains shown) VH: EVQLVESGGGLVQPGGSLRLSCAASGFTFSTYAMNWVRQAPGKGLEWVARIRSKYNNYATYYAASVKGRFTISRDDSKNSLYLQMNSLRTEDTAVYYCVRHGNFGHSYVSWFAYWGQGTLVTVSS VL: QAVVTQPPSLTVSPGGTVTLTCGSSTGAVTTGHYANWVQQKPGQAPRGLIGGTNKRAPGVPARFSGSLSGGKAALTISGAQPEDEAEYYCALWYSNLWVFGGGTKLTVL |  |  |  | 0.49 µg/mL | 0.73 µg/mL | 0.97 µg/mL
huSP34.13.9 Fab-HF (Fab, V domains shown) VH: EVQLVESGGGLVQPGGSLRLSCAASGFTFSTYAMNWVRQAPGKGLEWVGRIRSKYNNYATYYAASVKGRFTISRDDSKNTLYLQMNSLRTEDTAVYYCVRHGNFGHSYVSWFAYWGQGTLVTVSS VL: QAVVTQPPSLTVSPGGTVTLTCGSSTGAVTTGHYANWVQQKPGQAPRGLIGGTNKRAPGVPARFSGSLSGGKAALTISGAQPEDEAEYYCALWYSNLWVFGGGTKLTVL |  |  |  | 0.25 µg/mL | 0.36 µg/mL | 0.48 µg/mL
huSP34.11.10 Fab-HF (Fab, V domains shown) VH: EVQLVESGGGLVQPGGSLRLSCAASGFTFSTYAMNWVRQAPGKGLEWVGRIRSKYNNYATYYAASVKGRFTISRDDSKNSLYLQMNSLRTEDTAVYYCVRHGNFGHSYVSWFAYWGQGTLVTVSS VL: QAVVTQPPSLTVSPGGTVTLTCGSSTGAVTTGHYANWVQQKPGQAPRGLIGGTNKRAPGVPARFSGSLSGGKAALTISGAQPEDEAEYYCALWYSNRWVFGGGTKLTVL |  |  |  | 0.15 µg/mL | 0.25 µg/mL | 0.35 µg/mL
huSP34.3.9 Fab-HF (Fab, V domains shown) VH: EVQLVESGGGLVQPGGSLRLSCAASGFTFNTYAMNWVRQAPGKGLEWVGRIRSKYNNYATYYADSVKGRFTISRDDSKNSLYLQMNSLRTEDTAVYYCVRHGNFGHSYVSWFAYWGQGTLVTVSS VL: QAVVTQPPSLTVSPGGTVTLTCGSSTGAVTTGHYANWVQQKPGQAPRGLIGGTNKRAPGVPARFSGSLSGGKAALTISGAQPEDEAEYYCALWYSNLWVFGGGTKLTVL |  |  |  | 0.17 µg/mL | 0.28 µg/mL | 0.39 µg/mL
huSP34.3.8 Fab-HF (Fab, V domains shown) VH: EVQLVESGGGLVQPGGSLRLSCAASGFTFNTYAMNWVRQAPGKGLEWVGRIRSKYNNYATYYADSVKGRFTISRDDSKNSLYLQMNSLRTEDTAVYYCVRHGNFGHSYVSWFAYWGQGTLVTVSS VL: QAVVTQEPSLTVSPGGTVTLTCGSSTGAVTTGHYANWVQQKPGQAPRGLIGGTNKRAPGVPARFSGSLLGGKAALTISGAQPEDEAEYYCALWYSNRWVFGGGTKLTVL |  |  |  | 0.1 µg/mL | 0.15 µg/mL | 0.2 µg/mL
